# Data published in patent US20030211537A1.
# Residue numbers refer to the chain shown, from its start. Non-standard residues stand in square brackets, D forms with d. No end group written: not given here.
# T1: rat µ opioid receptor (rat), P33535
# T1 chain: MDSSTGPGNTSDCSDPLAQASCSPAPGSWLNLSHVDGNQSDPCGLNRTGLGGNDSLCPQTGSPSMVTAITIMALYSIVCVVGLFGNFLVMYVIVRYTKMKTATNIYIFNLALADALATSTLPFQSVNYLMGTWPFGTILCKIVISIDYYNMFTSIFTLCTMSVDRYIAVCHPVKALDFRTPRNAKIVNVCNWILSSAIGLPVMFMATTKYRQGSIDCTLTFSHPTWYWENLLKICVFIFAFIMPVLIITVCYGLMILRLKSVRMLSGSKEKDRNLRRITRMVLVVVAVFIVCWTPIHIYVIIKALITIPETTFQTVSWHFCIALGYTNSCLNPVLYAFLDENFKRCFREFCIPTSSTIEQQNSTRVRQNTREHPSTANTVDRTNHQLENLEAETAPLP
# T2: mouse delta opioid receptor (mORD1) (mouse), P32300
# T2 chain: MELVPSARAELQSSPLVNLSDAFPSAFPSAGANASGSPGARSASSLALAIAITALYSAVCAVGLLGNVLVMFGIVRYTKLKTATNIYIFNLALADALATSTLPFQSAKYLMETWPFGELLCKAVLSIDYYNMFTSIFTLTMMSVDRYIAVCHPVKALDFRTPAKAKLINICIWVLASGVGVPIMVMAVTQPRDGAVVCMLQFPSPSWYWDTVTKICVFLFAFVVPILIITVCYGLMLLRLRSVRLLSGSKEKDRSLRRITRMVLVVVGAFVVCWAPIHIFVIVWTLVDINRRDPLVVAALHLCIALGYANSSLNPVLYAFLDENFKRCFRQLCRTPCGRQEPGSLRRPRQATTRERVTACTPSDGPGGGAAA
# T3: D128N mutant mouse delta opioid receptor (mouse), P32300
# T3 chain: T2 chain with D128N
# T4: κ1-78/δ70-372 chimeric opioid receptor (mouse)
# T4 chain: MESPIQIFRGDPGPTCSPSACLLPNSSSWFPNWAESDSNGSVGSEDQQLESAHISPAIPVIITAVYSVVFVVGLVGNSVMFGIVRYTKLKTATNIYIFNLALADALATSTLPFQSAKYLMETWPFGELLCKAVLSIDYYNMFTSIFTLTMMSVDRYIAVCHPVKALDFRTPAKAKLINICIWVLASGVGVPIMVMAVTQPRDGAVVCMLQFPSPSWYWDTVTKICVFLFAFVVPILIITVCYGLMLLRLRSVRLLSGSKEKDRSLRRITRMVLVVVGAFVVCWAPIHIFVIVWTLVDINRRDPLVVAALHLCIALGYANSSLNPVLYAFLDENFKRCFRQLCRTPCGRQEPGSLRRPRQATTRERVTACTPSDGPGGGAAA
# T5: H278N mutant mouse delta opioid receptor (mouse), P32300
# T5 chain: T2 chain with H278N
# B1: DADL (peptide)
# chain: YAGFL
# modifications: not checked
# B2: [D-Pen2, D-Pen5]enkephalin (DPDPE) (peptide)
# chain: YCGFC
# modifications: not checked
# B3: [D-Ala2,MePhe4,Gly-ol5]enkephalin (DAMGO) (peptide)
# chain: YAGFG
# modifications: not checked
# B4: [D-Ser2, Leu5] enkephalin-Thr6 (DSLET) (peptide)
# chain: Y[dS]GFLT
# Tests used:
# [1] = target: T1, rat µ opioid receptor (rat), P33535; experiment: competition vs [3H]DAMGO, COS-7 membranes
# [2] = target: T2, mouse delta opioid receptor (mORD1) …; experiment: competition vs [3H]naltrindole, COS-1 membranes
# [3] = target: T2, mouse delta opioid receptor (mORD1) …; experiment: competition vs [3H]naltrindole, CHO-DG44 membranes
# [4] = target: T2, mouse delta opioid receptor (mORD1) …; experiment: radioligand binding, COS-7 membranes
# [5] = target: T1, rat µ opioid receptor (rat), P33535; experiment: saturation binding, COS-7 membranes
# [6] = target: cloned human µ opioid receptor (human), P35372; experiment: saturation binding, Scatchard analysis, COS-7 membranes
# Chain of cloned human µ opioid receptor (human), P35372 (P35372 whole entry): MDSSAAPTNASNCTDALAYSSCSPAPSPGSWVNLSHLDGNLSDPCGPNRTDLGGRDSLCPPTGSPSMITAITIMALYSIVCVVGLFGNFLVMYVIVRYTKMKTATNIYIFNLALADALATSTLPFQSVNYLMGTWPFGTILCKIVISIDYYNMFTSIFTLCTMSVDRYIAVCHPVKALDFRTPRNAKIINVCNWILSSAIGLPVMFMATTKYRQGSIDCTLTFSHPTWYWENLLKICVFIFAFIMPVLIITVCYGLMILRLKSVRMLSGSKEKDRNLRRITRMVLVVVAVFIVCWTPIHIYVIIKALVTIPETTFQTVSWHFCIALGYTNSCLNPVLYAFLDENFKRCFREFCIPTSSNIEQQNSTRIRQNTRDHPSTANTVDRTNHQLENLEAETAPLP
# [7] = target: T3, D128N mutant mouse delta opioid …; experiment: cell-based or functional assay
# [8] = target: T2, mouse delta opioid receptor (mORD1) …; experiment: cell-based or functional assay
# [9] = target: T4, κ1-78/δ70-372 chimeric opioid receptor …; experiment: competition vs [3H]DPDPE, COS-7 membranes
# [10] = target: T5, H278N mutant mouse delta opioid …; experiment: competition vs 3H-naltrindole, COS-7 membranes
binder,measurement,setting,value
B1,Ki,[1],16 nM
same,IC50,[2],20 nM
same,Ki,[3],0.74 nM
B2,average binding (fmol/mg protein),[4],1990
B3,Kd,[5],0.57 nM
same,Ki,[1],2 nM
same,Kd,[6],1 nM
B4,EC50 to inhibit forskolin-stimulated cAMP accumulation,[7],30 nM
same,inhibition of forskolin-stimulated cAMP formation,[8],70%
same,IC50,[9],2 nM
same,Ki,[10],0.5 nM
